Earlier results on 1 substance are cited in publication PMC6154725.

The term pKa denotes the negative logarithm of the acid dissociation constant.

The data set has as its target Tyr7 (UniProt position 9, HHGWGYGQDDG). Nature of the data set: NMR. As to conditions: solution, Zn enzyme, no ligand mentioned.

For the substance “Carbonic anhydrase II (HCA II) (Homo sapiens)”, the pKa is about 7.
